Reference: patent US7432342 (dated 2008)
Ends that are not written are not given here.

target: PKA-RIIα-GFP (UniProt P13861); experiment: not given
Sequence (P13861 2-404): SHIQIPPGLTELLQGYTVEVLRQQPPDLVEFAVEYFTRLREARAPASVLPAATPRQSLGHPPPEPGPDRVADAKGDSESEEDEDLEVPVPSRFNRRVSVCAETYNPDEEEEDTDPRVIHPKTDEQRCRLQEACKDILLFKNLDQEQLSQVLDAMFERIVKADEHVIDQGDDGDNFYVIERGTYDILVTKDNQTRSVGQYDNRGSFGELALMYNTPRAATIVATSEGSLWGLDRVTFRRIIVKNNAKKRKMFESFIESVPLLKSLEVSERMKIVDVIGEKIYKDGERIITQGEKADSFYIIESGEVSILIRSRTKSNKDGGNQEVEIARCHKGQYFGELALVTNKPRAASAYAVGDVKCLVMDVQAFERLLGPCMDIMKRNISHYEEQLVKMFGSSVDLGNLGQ

binding result	Binder
no binding	KIAKMIVSDIMQQ [truncation SEQ 79]
no binding	WKIAKMIVSDIMQQ [truncation SEQ 78]
no binding	AKMIVSDIMQQ [truncation SEQ 81]
no binding	KMIVSDIMQQ [truncation SEQ 82]
no binding	IAKMIVSDIMQQ [truncation SEQ 80]

target: PKA-RIα-GFP (UniProt P10644); experiment: SPR
Sequence (P10644 whole entry): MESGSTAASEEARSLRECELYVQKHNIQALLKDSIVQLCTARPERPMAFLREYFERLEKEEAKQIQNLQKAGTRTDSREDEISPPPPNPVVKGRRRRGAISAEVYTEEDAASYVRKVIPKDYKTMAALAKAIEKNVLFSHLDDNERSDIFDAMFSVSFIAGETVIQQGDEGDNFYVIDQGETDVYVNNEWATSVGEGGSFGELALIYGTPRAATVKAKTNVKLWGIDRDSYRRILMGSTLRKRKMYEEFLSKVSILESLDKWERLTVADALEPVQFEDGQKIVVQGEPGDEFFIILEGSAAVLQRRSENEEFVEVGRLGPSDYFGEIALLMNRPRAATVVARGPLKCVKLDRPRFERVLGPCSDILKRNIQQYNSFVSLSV

Kd [nM]	Binder
500	Ac-VQGNTDEAQEELAWKIAKMIVSDVMQQ-NH2 [Ac-27mer Val]
860	Ac-VQGNTDEAQEELAWKIAKMIVSDIMQQ [Ac-27mer Ile]

target: T1, PKA RIα (full-length) (bovine, UniProt P00514); experiment: FP
T1 sequence (P00514 2-380): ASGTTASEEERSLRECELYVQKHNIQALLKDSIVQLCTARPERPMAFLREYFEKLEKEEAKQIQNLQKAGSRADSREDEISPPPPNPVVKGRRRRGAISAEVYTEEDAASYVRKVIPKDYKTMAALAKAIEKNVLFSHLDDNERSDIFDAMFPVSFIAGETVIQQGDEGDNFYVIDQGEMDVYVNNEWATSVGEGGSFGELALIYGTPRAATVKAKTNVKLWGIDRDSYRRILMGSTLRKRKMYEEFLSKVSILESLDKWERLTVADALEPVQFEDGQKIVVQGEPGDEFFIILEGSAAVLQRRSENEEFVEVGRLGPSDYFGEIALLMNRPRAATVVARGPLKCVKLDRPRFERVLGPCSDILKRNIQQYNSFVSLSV

Kd [nM]	Binder
48	VQGNTDEAQEELAWKIAKMIVSDVMQQC(tetramethylrhodamine) [AKB(dual) WT]
12	QEEFAWKIAKMIISDVFQQC [PV-48]
39	QEEFAWKIAKMIVSDVFQQC [PV-47]
1.1	FEELAWKIAKMIISDVFQQC [PV-49]
5.2	FEELAWKIAKMIWSDVFQQC [AKB(RI) PV-38]
773	Ac-DLAWKIAKMIVSDVMQQC [Ac-DLAWKIAKMIVSDVMQQC]
19	FEELAWKIAKMIWSDVMQQC [PV-37]
120	VQGNTDEAQEELAWKIAKMIWSDVMQQC [V21W]

target: T2, PKA RIIα (full-length) (mouse, UniProt P12367); experiment: FP
T2 sequence (P12367 2-401): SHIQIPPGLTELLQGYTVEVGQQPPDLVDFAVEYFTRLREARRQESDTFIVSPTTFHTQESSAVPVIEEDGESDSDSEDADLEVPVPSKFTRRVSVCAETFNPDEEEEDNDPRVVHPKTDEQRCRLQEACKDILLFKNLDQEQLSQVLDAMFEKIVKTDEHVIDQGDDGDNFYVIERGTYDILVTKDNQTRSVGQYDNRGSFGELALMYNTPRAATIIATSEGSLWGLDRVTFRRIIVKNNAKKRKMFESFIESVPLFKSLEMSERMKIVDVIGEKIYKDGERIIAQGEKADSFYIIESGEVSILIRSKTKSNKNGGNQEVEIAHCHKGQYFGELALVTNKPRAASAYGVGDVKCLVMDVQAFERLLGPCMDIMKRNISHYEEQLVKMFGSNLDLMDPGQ

Kd [nM]	Binder
2.2	VQGNTDEAQEELAWKIAKMIVSDVMQQC(tetramethylrhodamine) [AKB(dual) WT]
124	QEEFAWKIAKMIISDVFQQC [PV-48]
89	QEEFAWKIAKMIVSDVFQQC [PV-47]
2.5	FEELAWKIAKMIISDVFQQC [PV-49]
456	FEELAWKIAKMIWSDVFQQC [AKB(RI) PV-38]
107	Ac-DLAWKIAKMIVSDVMQQC [Ac-DLAWKIAKMIVSDVMQQC]
150	FEELAWKIAKMIWSDVMQQC [PV-37]
83	VQGNTDEAQEELAWKIAKMIWSDVMQQC [V21W]

target: T2, PKA RIIα (full-length); experiment: FP; remark: another data set of the same source

Kd [nM]	Binder
2.2	VQGNTDEAQEELAWKIAKMIVSDVMQQC(tetramethylrhodamine) [AKB(dual) WT]
> 10000	VQGNTDEAQEELAWKIEKMIWSDVMQQC (also: fluorescently labeled) [AKB(null)]
2.7	VQGNTDEAQEELLWKIAKMIVSDVMQQC (also: fluorescently labeled) [AKB(RII)]
456	FEELAWKIAKMIWSDVFQQC [AKB(RI) PV-38]

target: PKA-RIα-GFP (UniProt P10644); experiment: not given

binding result	Binder
no binding	KIAKMIVSDIMQQ [truncation SEQ 79]
no binding	WKIAKMIVSDIMQQ [truncation SEQ 78]
no binding	AKMIVSDIMQQ [truncation SEQ 81]
no binding	LAWKIAKMIVSDIMQQ [truncation SEQ 76]
no binding	KMIVSDIMQQ [truncation SEQ 82]
no binding	IAKMIVSDIMQQ [truncation SEQ 80]
no binding	AWKIAKMIVSDIMQQ [truncation SEQ 77]

target: PKA-RIα-GFP (UniProt P10644); experiment: not given; remark: another data set of the same source

binding result	Binder
no binding	QEELAWKIAKM [truncation SEQ 11]
no binding	AQEELAWKIAKMI [truncation SEQ 10]
no binding	DEAQEELAWKIAKMIVS [truncation SEQ 9]
no binding	ELAWKIA [truncation SEQ 13]
no binding	TDEAQEELAWKIAKMIVSD [truncation SEQ 8]
no binding	EAQEELAWKIAKMIV [truncation SEQ 4]
no binding	EELAWKIAK [truncation SEQ 12]

target: PKA-RIα-GFP (UniProt P10644); experiment: not given; remark: another data set of the same source

binding result	Binder
no binding	VQGNTDEAQE [truncation SEQ 99]
no binding	VQGNTDEAQEELAWKI [truncation SEQ 93]
no binding	VQGNTDEAQEELAWKIAK [truncation SEQ 91]
no binding	VQGNTDEAQEELAWKIAKMIVS [truncation SEQ 87]
no binding	VQGNTDEAQEELAWKIAKMIV [truncation SEQ 88]
no binding	VQGNTDEAQEELA [truncation SEQ 96]
no binding	VQGNTDEAQEEL [truncation SEQ 97]
no binding	VQGNTDEAQEELAWKIAKM [truncation SEQ 90]
no binding	VQGNTDEAQEELAWKIAKMI [truncation SEQ 89]
no binding	VQGNTDEAQEELAW [truncation SEQ 95]
no binding	VQGNTDEAQEELAWKIAKMIVSD [truncation SEQ 86]
no binding	VQGNTDEAQEELAWK [truncation SEQ 94]
no binding	VQGNTDEAQEELAWKIA [truncation SEQ 92]
no binding	VQGNTDEAQEE [truncation SEQ 98]

target: T1, PKA RIα (full-length); experiment: FP; remark: another data set of the same source

Kd [nM]	Binder
48	VQGNTDEAQEELAWKIAKMIVSDVMQQC(tetramethylrhodamine) [AKB(dual) WT]
998	VQGNTDEAQEELAWKIEKMIWSDVMQQC (also: fluorescently labeled) [AKB(null)]
2490	VQGNTDEAQEELLWKIAKMIVSDVMQQC (also: fluorescently labeled) [AKB(RII)]
5.2	FEELAWKIAKMIWSDVFQQC [AKB(RI) PV-38]

target: PKA-RIIα-GFP (UniProt P13861); experiment: not given; remark: another data set of the same source

binding result	Binder
no binding	QEELAWKIAKM [truncation SEQ 11]
no binding	AQEELAWKIAKMI [truncation SEQ 10]
no binding	ELAWKIA [truncation SEQ 13]
no binding	EELAWKIAK [truncation SEQ 12]

target: PKA-RIIα-GFP (UniProt P13861); experiment: not given; remark: another data set of the same source

binding result	Binder
no binding	VQGNTDEAQE [truncation SEQ 99]
no binding	VQGNTDEAQEELAWKI [truncation SEQ 93]
no binding	VQGNTDEAQEELAWKIAK [truncation SEQ 91]
no binding	VQGNTDEAQEELA [truncation SEQ 96]
no binding	VQGNTDEAQEEL [truncation SEQ 97]
no binding	VQGNTDEAQEELAWKIAKM [truncation SEQ 90]
no binding	VQGNTDEAQEELAWKIAKMI [truncation SEQ 89]
no binding	VQGNTDEAQEELAW [truncation SEQ 95]
no binding	VQGNTDEAQEELAWK [truncation SEQ 94]
no binding	VQGNTDEAQEELAWKIA [truncation SEQ 92]
no binding	VQGNTDEAQEE [truncation SEQ 98]
